In patent publication CN109957012A:

Assays:
[1] = target: H7N9病毒的血凝素HA (H7N9 influenza virus); assay: ELISA of 293F transfection supernatant (well A, supernatant)
[2] = target: H7N9病毒的血凝素HA (H7N9 influenza virus); assay: ELISA of 293F transfection supernatant (well C, supernatant)
[3] = target: H7N9病毒的血凝素HA (H7N9 influenza virus); assay: ELISA of 293F transfection supernatant (well B, supernatant)

B1: 抗H7N9全人源单克隆抗体8E17 (antibody, V domains shown)
VH: QVQLVESGGGVVQPGRSLRLSCAASGFIFSNYGMHWVRQAPGRGLEWVAVIWSDGTTTYYADSFKGRFTISSDNSKNTVYLQMNSLRADDSAIYYCARGDLDVVQVAAVTKLWDYWGQGTLVTVSS
VL: QSVLTQPPSASGSLGRSVTISCTGTSSDVGGYNYVSWYQQHPGKVPKLLVYEVTKRPSGVPDRFSGSKSGNTASLTVSGLQAEDEADYYCSSYAVSNNFVFGTGTKLTVTV
B1 was tested, and the absorbance at 450 nm (450) [1] was 3 OD450, the absorbance at 450 nm (450) [2] was 2.96 OD450 and the absorbance at 450 nm (450) [3] was 3.12 OD450.
